Each block holds one molecule with its values, some of them ahead of it. Where no end group is shown, it is not given here.
How the values were obtained:
[1] = target: His-MBP-Red1 452-524 (S. pombe) (UniProt Q9UTR8); assay: SEC-MALS; His-MBP-Red1 452-524, the dimer peak, injected at 9 mg/ml; stayed dimeric on reinjection
[2] = target: Ars2 68-183,206-531 (S. pombe) (UniProt O94326); assay: SEC-MALS; Ars2 68-183,206-531, the dimer peak of the size exclusion chromatography
[3] = target: T1, full-length (FL) His-MBP-Ars2 (S. pombe, UniProt O94326 1-609); assay: ITC; 25 °C, 0.4-0.8 mM Red1 injected into 30-40 µM Ars2, 20 mM Tris pH 8.0, 200 mM NaCl, one-site model; settings: both partners purified
T1 construct: Ars2, S. pombe, 609 residues; the tags are named on the protein for the gel filtration; also called FL Ars2; full-length Ars2; source: E. coli, expressed as MBP fusion, purified (amylose resin, Superdex 200)
T1 sequence (looked up): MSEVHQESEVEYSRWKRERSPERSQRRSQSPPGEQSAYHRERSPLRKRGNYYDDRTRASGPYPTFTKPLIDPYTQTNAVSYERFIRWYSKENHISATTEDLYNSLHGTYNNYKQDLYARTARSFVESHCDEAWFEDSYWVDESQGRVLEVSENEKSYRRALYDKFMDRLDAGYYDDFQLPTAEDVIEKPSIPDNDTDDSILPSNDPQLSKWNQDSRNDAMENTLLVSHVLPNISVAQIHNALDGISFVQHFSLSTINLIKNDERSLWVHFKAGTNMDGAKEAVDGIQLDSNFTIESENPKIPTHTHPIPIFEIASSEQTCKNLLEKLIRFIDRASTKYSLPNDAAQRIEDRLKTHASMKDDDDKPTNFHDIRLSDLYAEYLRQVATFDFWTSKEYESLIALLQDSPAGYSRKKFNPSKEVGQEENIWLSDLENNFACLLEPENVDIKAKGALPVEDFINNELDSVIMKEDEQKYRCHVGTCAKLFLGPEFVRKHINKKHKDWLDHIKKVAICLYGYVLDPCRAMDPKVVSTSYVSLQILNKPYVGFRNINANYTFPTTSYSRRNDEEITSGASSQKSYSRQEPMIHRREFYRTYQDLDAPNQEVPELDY

[4] = target: T2, His-GST-tagged human ARS2 147-871 (human, UniProt Q9BXP5 147-871); assay: pull-down; MBP pull-down: Ni-purified His-MBP-peptide held on amylose resin, His-GST-ARS2 added; 20 mM Tris pH 8, 100 mM NaCl; eluted with 10 mM maltose; settings: both partners purified
T2 construct: ARS2 (SRRT), human, residues 147-871; vector pETM30; also called hARS2^147–871; His-GST-ARS2; source: E. coli BL21Star (DE3), purified (Ni^2+ chelating Sepharose)
T2 sequence (looked up): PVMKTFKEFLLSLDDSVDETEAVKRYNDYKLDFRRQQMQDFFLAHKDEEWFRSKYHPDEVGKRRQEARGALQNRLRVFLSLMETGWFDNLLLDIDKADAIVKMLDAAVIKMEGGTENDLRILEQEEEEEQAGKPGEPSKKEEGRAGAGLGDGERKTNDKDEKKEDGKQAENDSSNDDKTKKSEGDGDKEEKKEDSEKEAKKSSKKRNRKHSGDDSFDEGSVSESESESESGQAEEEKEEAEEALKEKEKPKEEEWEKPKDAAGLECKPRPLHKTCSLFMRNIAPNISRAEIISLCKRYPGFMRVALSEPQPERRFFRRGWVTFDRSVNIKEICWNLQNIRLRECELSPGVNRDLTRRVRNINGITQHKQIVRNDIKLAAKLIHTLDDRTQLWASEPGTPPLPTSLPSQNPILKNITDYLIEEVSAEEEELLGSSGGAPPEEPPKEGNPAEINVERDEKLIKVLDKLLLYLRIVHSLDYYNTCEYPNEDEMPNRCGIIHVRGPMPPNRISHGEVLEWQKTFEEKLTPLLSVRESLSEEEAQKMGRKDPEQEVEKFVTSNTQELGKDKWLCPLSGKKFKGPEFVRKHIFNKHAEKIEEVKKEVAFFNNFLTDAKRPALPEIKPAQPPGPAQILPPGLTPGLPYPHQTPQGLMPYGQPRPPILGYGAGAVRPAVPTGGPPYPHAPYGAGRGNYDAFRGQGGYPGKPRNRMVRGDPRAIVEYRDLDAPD

[5] = target: Strep-Iss10 1-45 (S. pombe); assay: SEC-MALS; co-purified Red1 192-236 / Iss10 1-45 complex on Superdex 200 10/300 GL, 4 °C, 20 mM Tris-HCl pH 8, 100 mM NaCl, 5 mM β-mercaptoethanol
Strep-Ars2 107-527 [6] = target: T3, Strep-Ars2 107-527 (S. pombe, UniProt O94326 107-527); assay: ITC; 25 °C, 0.4-0.8 mM Red1 injected into 30-40 µM Ars2, 20 mM Tris pH 8.0, 100 mM NaCl, one-site model; settings: both partners purified
T3 construct: vector pETM41; source: E. coli BL21Star (DE3), purified (Ni^2+ chelating Sepharose); not shown: Strep-tag, C-terminal, kept
T3 sequence (looked up): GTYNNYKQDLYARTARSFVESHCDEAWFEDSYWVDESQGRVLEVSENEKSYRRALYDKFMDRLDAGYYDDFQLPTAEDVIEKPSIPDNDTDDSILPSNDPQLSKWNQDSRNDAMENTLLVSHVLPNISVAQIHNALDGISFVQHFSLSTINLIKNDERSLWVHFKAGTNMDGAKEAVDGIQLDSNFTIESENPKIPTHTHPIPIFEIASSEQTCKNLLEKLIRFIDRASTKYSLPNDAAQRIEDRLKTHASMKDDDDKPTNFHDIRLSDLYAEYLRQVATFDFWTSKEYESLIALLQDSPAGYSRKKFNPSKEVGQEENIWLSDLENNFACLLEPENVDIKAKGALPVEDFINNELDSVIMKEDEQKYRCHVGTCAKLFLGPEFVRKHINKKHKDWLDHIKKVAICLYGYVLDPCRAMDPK

Strep-Ars2 107-527 [7] = target: T3, Strep-Ars2 107-527; assay: ITC; 25 °C, 0.4-0.8 mM Red1 injected into 30-40 µM Ars2, 20 mM Tris pH 8.0, 200 mM NaCl, one-site model; settings: both partners purified
[8] = target: T4, full-length (FL) His-MBP-Ars2 (S. pombe, UniProt O94326 1-609); assay: ITC; 200 mM NaCl
T4 chain: T1 sequence (looked up)

[9] = target: full-length (FL) His-MBP-Ars2 (S. pombe) (UniProt O94326); assay: ITC; 25 °C, 0.4-0.8 mM Red1 injected into 30-40 µM Ars2, 20 mM Tris pH 8.0, 200 mM NaCl, one-site model
Ars2 (58-609) = target: T5, Ars2 (58-609) (Schizosaccharomyces pombe); assay: ITC; 200 mM NaCl
T5 chain: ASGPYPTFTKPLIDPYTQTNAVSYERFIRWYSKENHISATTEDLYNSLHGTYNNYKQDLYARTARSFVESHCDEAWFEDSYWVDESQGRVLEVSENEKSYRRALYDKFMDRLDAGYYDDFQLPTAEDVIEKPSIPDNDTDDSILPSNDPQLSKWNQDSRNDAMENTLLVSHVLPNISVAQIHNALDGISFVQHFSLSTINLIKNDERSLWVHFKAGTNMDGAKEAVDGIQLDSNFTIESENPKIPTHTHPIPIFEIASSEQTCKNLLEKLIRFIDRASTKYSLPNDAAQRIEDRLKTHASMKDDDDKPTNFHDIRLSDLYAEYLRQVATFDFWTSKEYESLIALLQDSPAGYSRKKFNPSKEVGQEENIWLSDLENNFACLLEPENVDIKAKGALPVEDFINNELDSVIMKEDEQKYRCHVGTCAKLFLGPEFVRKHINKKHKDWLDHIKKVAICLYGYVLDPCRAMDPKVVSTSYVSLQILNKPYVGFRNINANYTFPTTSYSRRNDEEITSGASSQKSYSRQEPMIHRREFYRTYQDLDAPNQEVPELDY

stoichiometry N [1]: 2
Molecule: His-MBP-Red1 452-524 (from UniProt Q9UTR8 452-524) (domain or fragment)

stoichiometry N [2]: 2
Molecule: Ars2 68-183,206-531 (from UniProt O94326 68-183; O94326 206-531) (domain or fragment)

Kd [3]: ~5 µM
B1: Red1 peptide 20-40 (peptide)
peptide: KNEEDESNDSDKEDGEISEDD
notes: Red1, S. pombe, residues 20-40 with the EDGEI motif; also called Red1^20–40 peptide; Red1 N-terminal peptide; source: synthetic peptide (PSL GMBH)

binding result [4]: binds
B2: His-MBP-tagged ZFC3H1 12-33 (domain or fragment, human, UniProt O60293 12-33, looked up)
chain: SGLSPKEEGELEDGEISDDDNN
notes: ZFC3H1, human, 1989 residues, residues 12-33 with the EDGEI motif; vector pETM41; also called MBP-ZFC3H1; hZFC3H1; source: E. coli BL21Star (DE3), purified (Ni^2+ chelating Sepharose)

stoichiometry N [5]: 1
Molecule: TTNQKEAEKAVSQLFEVGVRFNDFIAEGIEPSVVHTLFLKLGLDS (domain or fragment) [Red1 192-236, His-MBP tag cleaved]

binding result [4]: binds
B3: His-MBP-ZFC3H1 12-33 I27L (domain or fragment, human, UniProt O60293 12-33, looked up)
chain: SGLSPKEEGELEDGELSDDDNN
notes: ZFC3H1, human, residues 12-33; source: E. coli BL21Star (DE3), purified (Ni^2+ chelating Sepharose)

binding result [4]: binds
B4: His-MBP-ZFC3H1 20-31 (domain or fragment, human, UniProt O60293 20-31, looked up)
chain: GELEDGEISDDD
notes: ZFC3H1, human, residues 20-31 (12 residues); source: E. coli BL21Star (DE3), purified (Ni^2+ chelating Sepharose)

Kd (Strep-Ars2 107-527 [6]): 800 nM
Kd [3]: ~5 µM
Kd (Strep-Ars2 107-527 [7]): 5 µM
binding result [4]: binds
B5: His-MBP-Red1 20-40 (domain or fragment, S. pombe)
chain: KNEEDESNDSDKEDGEISEDD
notes: Red1, S. pombe, residues 20-40 with the EDGEI motif; vector pETM41; also called MBP-Red1 EDGEI motif-containing peptide; source: E. coli BL21Star (DE3), purified (Ni^2+ chelating Sepharose or amylose resin, Superdex 200)

Kd [8]: 5.6 µM
Kd [9]: 5 µM
B6: His-MBP-Red1 1-54 (domain or fragment)
chain: MSRSINLDELRKKALESKKKNEEDESNDSDKEDGEISEDDPVIDQSNSVPPMKV

Kd (Ars2 (58-609)): 4.4 µM
Molecule: KNEEDESNDSDKEDGEISEDD (not fully specified)

From paper PMC9402713, “Structural analysis of Red1 as a conserved scaffold of the RNA-targeting MTREC/PAXT complex” (Nature Communications, 2022)
